Assays:
Assay in all cases: ITC; MicroCal Auto-iTC200; triplicate (or duplicate) experiments; details in SI
Settings in all cases: both partners purified
[1] = target: T1, Ac-DPNANPNVDPNA-NH2 peptide (Plasmodium falciparum CSP repeat …)
T1 chain: Ac-DPNANPNVDPNA-NH2

[2] = target: (NPNA)2 peptide (Plasmodium falciparum CSP repeat …)
[3] = target: T2, (NPNA)3 peptide, Ac-[residues removed]-NH2 (Plasmodium falciparum CSP repeat …)
T2 construct: also called 12-mer

[4] = target: T3, Ac-NPNVDPNANPNV-NH2 peptide (Plasmodium falciparum CSP repeat …)
T3 chain: Ac-NPNVDPNANPNV-NH2

B1: Fab317 (Fab, V domains shown)
VH: QMQLVESGGGVVQPGRSLRLSCTASGFTFSTYAMHWVRQSPGQGLQWVAVISYHSTNKYYEDSVRGRFTISRDNSKNTLYLQMNSLRAEDTAVYYCARDGYSSSFFDFWGQGTLVTVSS
VL: DIQMTQSPSTLSASVGDRVAITCRASQSISRWLAWYQQQPGKAPKLLMSGASVLESGVPSRFSGSGSGTEFTLTISSLQPDDFATYYCQHYNSYFVTFGQGTKVEIK
Question: With B1 as the binder, how does the Kd [1] read?
Answer: 448 nM

Question: And the dH [1]?
Answer: -9.39 kcal/mol

Question: And the “stoichiometry N” value [1]?
Answer: 1.64

Question: And the Kd [2]?
Answer: 173 nM

Question: What about the dH [2] of the same binder?
Answer: -12.1 kcal/mol

Question: And the “stoichiometry N” value [2]?
Answer: 1.41

Question: What about the Kd [3] of the same binder?
Answer: 78 nM

Question: And the dH [3]?
Answer: -15.7 kcal/mol

Question: What about the “stoichiometry N” value [3] of the same binder?
Answer: 1.27

B2: Fab311 (Fab, V domains shown)
VH: QVQLVESGGGVVPPGRSLRLSCATSGFTFSNYGMHWVRQAPGKGLEWVAIIWYDGSRNFYAASVEGRFTISRDNSKNTLYLQMNSLRVEDTAVYYCARAAYYDTSGYGDYWGQGTLVTVSS
VL: QSVLTQPPSVSGAPGQTVTISCTGGSSNIGAGYDVHWYQQLPGTAPKLLIYGNINRPSGVPDRFSGSKSGTSASLAITGLQAEDEADYYCQSYDRRLSGSWVFGGGTKLTVL
Question: Which Kd [1] does the source give for B2 here?
Answer: 1370 nM

Question: What about the dH [1] of the same binder?
Answer: -20.2 kcal/mol

Question: And the “stoichiometry N” value [1]?
Answer: 1.2

Question: What about the Kd [4] of the same binder?
Answer: 1790 nM

Question: And the dH [4]?
Answer: -18.7 kcal/mol

Question: What about the “stoichiometry N” value [4] of the same binder?
Answer: 1.24

Question: And the Kd [2]?
Answer: 296 nM

Question: And the dH [2]?
Answer: -16.4 kcal/mol

Question: And the “stoichiometry N” value [2]?
Answer: 1.5

Question: And the Kd [3]?
Answer: 305 nM

Question: And the dH [3]?
Answer: -29.8 kcal/mol

Question: What about the “stoichiometry N” value [3] of the same binder?
Answer: 0.74
